Test results published in patent US20230074436A1 (DENALI THERAPEUTICS, published 2023).
No end group written: not given here. *: point of attachment. Biotin = O=C1N[C@H]2[C@H](CS[C@H]2CCCCC(=O)*)N1

Assays:
[1] = biological target: alpha-synuclein peptide 1-112 (human); test: peptide ELISA
Protocol: (§1) 96-well Nunc plates were coated with 1 pg/mL of the indicated synthetic peptide in PBS 50 μL/well overnight. The plates were washed three times with PBST, then blocked with 150 μL of 3% BSA in PBS for 1 hour. Purified antibody was diluted by serial dilution methods, from 10 pg/mL to 0.6 ng/ml, and 50 μL of the antibody solution was added to the peptide-coated wells. The plates were incubated for 1 hour at room temperature, then washed three times with PBST. Secondary detection antibody, goat anti-rat HRP (obtained from Southern Biotech) 1:5,000 diluted in BSA-PBS, was added to a concentration of 50 μL/well. Plates were incubated for one hour and washed three times with PBST. Plates were then developed with 50 μL/well of TMB substrate (obtained from Thermo Fisher) and quenched with 50 μL/well of 1 N sulfuric acid. The signal was quantified on a BioTek® plate reader at A450.

[2] = biological target: T1, alpha-synuclein peptide 1-61 (human); test: peptide ELISA
T1 construct: synthetic peptide coated on plate
Protocol: as §1

[3] = biological target: T2, alpha-synuclein peptide 1-95 (human); test: peptide ELISA
T2 construct: synthetic peptide coated on plate
Protocol: as §1

[4] = biological target: T3, biotinylated human alpha-synuclein (human, UniProt P37840 1-140); test: Ala-scan peptide ELISA, row H, run 2
Protocol: (§2) 96-well Nunc plates were coated with 50 μL per well of 1 μg/mL streptavidin (from Jackson Immuno Research Laboratory) in PBS at 4° C. overnight. The plates were washed three times with PBST, and blocked with PBS containing 3% BSA at room temperature for 1 hour. The N-terminal biotinylated peptides were dissolved in Milli Q water to a concentration of 2 mg/mL, then further diluted to a concentration of 2 μg/mL with PBS. 50 μl of the diluted peptide was applied to the streptavidin-coated plates and incubated at 4° C. overnight. 2 μg/mL of biotinylated human alpha-synuclein was used as the positive control. The plates were washed three times with PBST before use. Purified antibody was diluted by serial dilution methods, from 20 μg/mL to 1 ng/mL, and 50 μL of the antibody solution was added to the peptide-coated wells. The plates were incubated for 1 hour at room temperature, then washed three times with PBST. Secondary detection antibody (goat anti-rat HRP (obtained from Southern Biotech)) was added with 1:5,000 dilutions and incubated for 1 hour at room temperature, then washed three times with PBST. Plates were developed with 50 μL/well of TMB substrate (Thermo Fisher) and quenched with 50 μL/well of 1 N sulfuric acid. The signal was quantified on a BioTek® plate reader at A450. A parallel repeat was performed for each peptide in a separate plate.

asyn_113-127_115A [5] = biological target: T4, asyn_113-127_115A (human); test: Ala-scan peptide ELISA, row H, run 2
T4 construct: substitution is already in the entry; also called pep4
T4 peptide: Biotin-LEAMPVDPDNEAYEM
Protocol: as §2

asyn_113-127_118A [6] = biological target: T5, asyn_113-127_118A (human); test: Ala-scan peptide ELISA, row H, run 2
T5 construct: substitution is already in the entry; also called pep7
T5 peptide: Biotin-LEDMPADPDNEAYEM
Protocol: as §2

asyn_113-127_116A [7] = biological target: T6, asyn_113-127_116A (human); test: Ala-scan peptide ELISA, row H, run 2
T6 construct: substitution is already in the entry; also called pep5
T6 peptide: Biotin-LEDAPVDPDNEAYEM
Protocol: as §2

asyn_113-127_122A [8] = biological target: T7, asyn_113-127_122A (human); test: Ala-scan peptide ELISA, row E, run 1
T7 construct: substitution is already in the entry; also called pep11
T7 peptide: Biotin-LEDMPVDPDAEAYEM
Protocol: as §2

asyn_113-127_123A [9] = biological target: T8, asyn_113-127_123A (human); test: Ala-scan peptide ELISA, row E, run 1
T8 construct: substitution is already in the entry; also called pep12
T8 peptide: Biotin-LEDMPVDPDNAAYEM
Protocol: as §2

asyn_113-127_113A [10] = biological target: T9, asyn_113-127_113A (human); test: Ala-scan peptide ELISA, row E, run 1
T9 construct: substitution is already in the entry; also called pep2
T9 peptide: Biotin-AEDMPVDPDNEAYEM
Protocol: as §2

asyn_113-127_114A [11] = biological target: T10, asyn_113-127_114A (human); test: Ala-scan peptide ELISA, row E, run 1
T10 construct: substitution is already in the entry; also called pep3
T10 peptide: Biotin-LADMPVDPDNEAYEM
Protocol: as §2

asyn_113-127_118A [12] = biological target: T5, asyn_113-127_118A; test: Ala-scan peptide ELISA, row E, run 1
Protocol: as §2

asyn_113-127 [13] = biological target: T11, asyn_113-127 (human); test: Ala-scan peptide ELISA, row E, run 1
T11 construct: also called pep1
T11 peptide: Biotin-LEDMPVDPDNEAYEM
Protocol: as §2

asyn_113-127_117A [14] = biological target: T12, asyn_113-127_117A (human); test: Ala-scan peptide ELISA, row E, run 1
T12 construct: substitution is already in the entry; also called pep6
T12 peptide: Biotin-LEDMAVDPDNEAYEM
Protocol: as §2

asyn_113-127_116A [15] = biological target: T6, asyn_113-127_116A; test: Ala-scan peptide ELISA, row E, run 1
Protocol: as §2

asyn_113-127_127A [16] = biological target: T13, asyn_113-127_127A (human); test: Ala-scan peptide ELISA, row E, run 1
T13 construct: substitution is already in the entry; also called pep17
T13 peptide: Biotin-LEDMPVDPDNEAYEA
Protocol: as §2

asyn_113-127_121A [17] = biological target: T14, asyn_113-127_121A (human); test: Ala-scan peptide ELISA, row E, run 1
T14 construct: substitution is already in the entry; also called pep10
T14 peptide: Biotin-LEDMPVDPANEAYEM
Protocol: as §2

asyn_113-127_124G [18] = biological target: T15, asyn_113-127_124G (human); test: Ala-scan peptide ELISA, row E, run 1
T15 construct: substitution is already in the entry; also called pep13
T15 peptide: Biotin-LEDMPVDPDNEGYEM
Protocol: as §2

asyn_113-127_122A [19] = biological target: T7, asyn_113-127_122A; test: Ala-scan peptide ELISA, row F, run 2
Protocol: as §2

asyn_113-127_126A = biological target: T16, asyn_113-127_126A (human); test: Ala-scan peptide ELISA, row F, run 2
T16 construct: substitution is already in the entry; also called pep16
T16 peptide: Biotin-LEDMPVDPDNEAYAM
Protocol: as §2

asyn_113-127_123A [20] = biological target: T8, asyn_113-127_123A; test: Ala-scan peptide ELISA, row F, run 2
Protocol: as §2

asyn_113-127_113A [21] = biological target: T9, asyn_113-127_113A; test: Ala-scan peptide ELISA, row F, run 2
Protocol: as §2

[22] = biological target: T3, biotinylated human alpha-synuclein; test: Ala-scan peptide ELISA, row F, run 2
Protocol: as §2

asyn_113-127_124P = biological target: T17, asyn_113-127_124P (human); test: Ala-scan peptide ELISA, row F, run 2
T17 construct: substitution is already in the entry; also called pep14
T17 peptide: Biotin-LEDMPVDPDNEPYEM
Protocol: as §2

asyn_113-127_114A [23] = biological target: T10, asyn_113-127_114A; test: Ala-scan peptide ELISA, row F, run 2
Protocol: as §2

asyn_113-127_115A [24] = biological target: T4, asyn_113-127_115A; test: Ala-scan peptide ELISA, row F, run 2
Protocol: as §2

asyn_113-127_118A [25] = biological target: T5, asyn_113-127_118A; test: Ala-scan peptide ELISA, row F, run 2
Protocol: as §2

asyn_113-127_125A = biological target: T18, asyn_113-127_125A (human); test: Ala-scan peptide ELISA, row F, run 2
T18 construct: substitution is already in the entry; also called pep15
T18 peptide: Biotin-LEDMPVDPDNEAAEM
Protocol: as §2

asyn_113-127 [26] = biological target: T11, asyn_113-127; test: Ala-scan peptide ELISA, row F, run 2
Protocol: as §2

asyn_113-127_117A [27] = biological target: T12, asyn_113-127_117A; test: Ala-scan peptide ELISA, row F, run 2
Protocol: as §2

asyn_113-127_119A = biological target: T19, asyn_113-127_119A (human); test: Ala-scan peptide ELISA, row F, run 2
T19 construct: substitution is already in the entry; also called pep8
T19 peptide: Biotin-LEDMPVAPDNEAYEM
Protocol: as §2

asyn_113-127_116A [28] = biological target: T6, asyn_113-127_116A; test: Ala-scan peptide ELISA, row F, run 2
Protocol: as §2

asyn_113-127_127A [29] = biological target: T13, asyn_113-127_127A; test: Ala-scan peptide ELISA, row F, run 2
Protocol: as §2

asyn_113-127_121A [30] = biological target: T14, asyn_113-127_121A; test: Ala-scan peptide ELISA, row F, run 2
Protocol: as §2

asyn_113-127_120A = biological target: T20, asyn_113-127_120A (human); test: Ala-scan peptide ELISA, row F, run 2
T20 construct: substitution is already in the entry; also called pep9
T20 peptide: Biotin-LEDMPVDADNEAYEM
Protocol: as §2

asyn_113-127_124G [31] = biological target: T15, asyn_113-127_124G; test: Ala-scan peptide ELISA, row F, run 2
Protocol: as §2

B1: 20H4 (antibody, rat IgG2b, V domains shown)
VH: AVQLVESGGGLVQPKESLKISCAASGFTFSNAAMYWVRQAPGKGLELLARIRTKPNNYATYHADSVKGRFTISRDDSQSMVYLHMGNLKTEDTAMYYCTADMATGDYWGPGVMVTVSS
VL: DIQMTQSPPVLSVSVGDRVTLSCKASQNINKNLDWYQQKHGEAPKPLIYSTNNLQTGVPSRFSGSGSGTDYTLTISSLQPEDVATYYCYQYKSAWTFGGGTKLELR
notes: also called clone 20H4; rat 20H4
Q: B1 was tested. Which “antibody concentration at which ELISA is positive” value (shortened to “antibody concentration”) [1] did it give?
A: > 2600 ng/mL

Q: What about the “antibody concentration” value [2] of the same binder?
A: > 2600 ng/mL

Q: And the “antibody concentration” value [3]?
A: > 2600 ng/mL

Q: What about the A450 [4] of the same binder?
A: 0.087 OD

Q: And the A450 (asyn_113-127_115A [5])?
A: 0.052 OD

Q: And the A450 (asyn_113-127_118A [6])?
A: 0.071 OD

Q: And the A450 (asyn_113-127_116A [7])?
A: 0.073 OD

Q: What about the A450 (asyn_113-127_122A [8]) of the same binder?
A: 0.051 OD

Q: And the A450 (asyn_113-127_123A [9])?
A: 0.282 OD

Q: And the A450 (asyn_113-127_113A [10])?
A: 0.302 OD

Q: What about the A450 (asyn_113-127_114A [11]) of the same binder?
A: 0.273 OD

Q: And the A450 (asyn_113-127_118A [12])?
A: 0.324 OD

Q: What about the A450 (asyn_113-127 [13]) of the same binder?
A: 0.297 OD

Q: What about the A450 (asyn_113-127_117A [14]) of the same binder?
A: 0.304 OD

Q: And the A450 (asyn_113-127_116A [15])?
A: 0.296 OD

Q: What about the A450 (asyn_113-127_127A [16]) of the same binder?
A: 0.248 OD

Q: What about the A450 (asyn_113-127_121A [17]) of the same binder?
A: 0.249 OD

Q: And the A450 (asyn_113-127_124G [18])?
A: 0.214 OD

Q: What about the A450 (asyn_113-127_122A [19]) of the same binder?
A: 0.049 OD

Q: What about the A450 (asyn_113-127_126A) of the same binder?
A: 0.169 OD

Q: What about the A450 (asyn_113-127_123A [20]) of the same binder?
A: 0.151 OD

Q: And the A450 (asyn_113-127_113A [21])?
A: 0.159 OD

Q: And the A450 [22]?
A: 0.284 OD

Q: What about the A450 (asyn_113-127_124P) of the same binder?
A: 0.047 OD

Q: What about the A450 (asyn_113-127_114A [23]) of the same binder?
A: 0.139 OD

Q: What about the A450 (asyn_113-127_115A [24]) of the same binder?
A: 0.075 OD

Q: What about the A450 (asyn_113-127_118A [25]) of the same binder?
A: 0.172 OD

Q: And the A450 (asyn_113-127_125A)?
A: 0.051 OD

Q: What about the A450 (asyn_113-127 [26]) of the same binder?
A: 0.148 OD

Q: And the A450 (asyn_113-127_117A [27])?
A: 0.163 OD

Q: What about the A450 (asyn_113-127_119A) of the same binder?
A: 0.045 OD

Q: And the A450 (asyn_113-127_116A [28])?
A: 0.165 OD

Q: And the A450 (asyn_113-127_127A [29])?
A: 0.162 OD

Q: And the A450 (asyn_113-127_121A [30])?
A: 0.143 OD

Q: And the A450 (asyn_113-127_120A)?
A: 0.111 OD

Q: And the A450 (asyn_113-127_124G [31])?
A: 0.133 OD
